# Tested on: Escherichia coli TOP10
# Experiment: shrunken log2 fold change of peptide-encoding DNA abundance (4.5 h post-induction vs induction); higher = less antimicrobial activity (less host growth inhibition)
# Conditions: time post-induction: 4.5 h; library: site-saturation at positions 5, 18, 19, 20
# 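Note: peptides expressed intracellularly from a pBAD plasmid library in pooled LB shake-flask culture, induced with 0.3% L-arabinose, DNA abundance read by NGS, three biological replicates, DESeq2 with apeglm shrinkage.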
row,Sequence,shrunken log2 fold change
1,RRIRDRPPRLPRPRPRPETLPRP,0.452
2,RRIRCRPPRLPRPRPRPGPQPRP,0.117
3,RRIRARPPRLPRPRPRPVPNPRP,-0.0263
4,RRIRKRPPRLPRPRPRPNQKPRP,0.11
5,RRIRCRPPRLPRPRPRPETDPRP,-0.00874
6,RRIRGRPPRLPRPRPRPSDAPRP,0.264
7,RRIRMRPPRLPRPRPRPSSCPRP,0.112
8,RRIRKRPPRLPRPRPRPSSGPRP,-0.0282
9,RRIRQRPPRLPRPRPRPIIDPRP,-0.199
10,RRIRWRPPRLPRPRPRPRYPPRP,0.175
11,RRIRIRPPRLPRPRPRPADKPRP,-0.194
12,RRIRARPPRLPRPRPRPTDCPRP,0.0381
13,RRIRSRPPRLPRPRPRPKGMPRP,-0.0819
14,RRIRHRPPRLPRPRPRPEKKPRP,-0.00333
15,RRIRIRPPRLPRPRPRPTTFPRP,-0.688
16,RRIRARPPRLPRPRPRPRECPRP,0.804
17,RRIRWRPPRLPRPRPRPLHNPRP,-0.116
18,RRIRSRPPRLPRPRPRPRPSPRP,0.439
19,RRIRERPPRLPRPRPRPEFEPRP,-0.159
20,RRIRKRPPRLPRPRPRPHIEPRP,-0.891
21,RRIRKRPPRLPRPRPRPMSCPRP,0.0384
22,RRIRLRPPRLPRPRPRPPIMPRP,-0.239
23,RRIRPRPPRLPRPRPRPWTIPRP,-0.117

row,Sequence,shrunken log2 fold change
1,RRIRHRPPRLPRPRPRPDNPPRP,-0.0868
2,RRIRCRPPRLPRPRPRPSSNPRP,-0.715
3,RRIRRRPPRLPRPRPRPEWQPRP,0.0758
4,RRIRCRPPRLPRPRPRPYAEPRP,-0.0578
5,RRIRLRPPRLPRPRPRPCRDPRP,-0.211
6,RRIRFRPPRLPRPRPRPKVKPRP,0.0668
7,RRIRIRPPRLPRPRPRPIDMPRP,-0.0681
8,RRIRKRPPRLPRPRPRPMLNPRP,0.174
9,RRIRMRPPRLPRPRPRPKKWPRP,0.962
10,RRIRTRPPRLPRPRPRPIPGPRP,-0.36
11,RRIRNRPPRLPRPRPRPIPDPRP,-0.0956
12,RRIRPRPPRLPRPRPRPGCGPRP,0.514
13,RRIRGRPPRLPRPRPRPIFEPRP,0.357
14,RRIRKRPPRLPRPRPRPMKEPRP,0.0132
15,RRIRMRPPRLPRPRPRPHFWPRP,0.774
16,RRIRLRPPRLPRPRPRPNLWPRP,0.321
17,RRIRNRPPRLPRPRPRPYNIPRP,-0.13
18,RRIRNRPPRLPRPRPRPKSTPRP,-0.271
19,RRIRIRPPRLPRPRPRPVAFPRP,-0.306
20,RRIRARPPRLPRPRPRPPNKPRP,0.23
21,RRIRMRPPRLPRPRPRPSHVPRP,-0.0609
22,RRIRGRPPRLPRPRPRPPYPPRP,0.291
23,RRIRKRPPRLPRPRPRPHFQPRP,0.0821

row,Sequence,shrunken log2 fold change
1,RRIRERPPRLPRPRPRPCIAPRP,-0.753
2,RRIRNRPPRLPRPRPRPVIYPRP,-0.301
3,RRIRLRPPRLPRPRPRPINPPRP,0.132
4,RRIRKRPPRLPRPRPRPRWSPRP,0.559
5,RRIRYRPPRLPRPRPRPERAPRP,0.173
6,RRIRFRPPRLPRPRPRPYCPPRP,-0.721
7,RRIRSRPPRLPRPRPRPMCNPRP,-0.287
8,RRIRIRPPRLPRPRPRPLPCPRP,-0.661
9,RRIRGRPPRLPRPRPRPCGVPRP,0.578
10,RRIRVRPPRLPRPRPRPKNMPRP,-0.866
11,RRIRHRPPRLPRPRPRPTVRPRP,0.165
12,RRIRKRPPRLPRPRPRPDKQPRP,0.0638
13,RRIRGRPPRLPRPRPRPCQGPRP,0.242
14,RRIRTRPPRLPRPRPRPYIVPRP,-1.04
15,RRIRWRPPRLPRPRPRPGMNPRP,-0.0747
16,RRIRSRPPRLPRPRPRPTTVPRP,0.14
17,RRIRDRPPRLPRPRPRPACPPRP,0.962
18,RRIRYRPPRLPRPRPRPTYFPRP,-0.485
19,RRIRARPPRLPRPRPRPNWDPRP,0.0564
20,RRIRARPPRLPRPRPRPGTQPRP,0.316
21,RRIRARPPRLPRPRPRPEEVPRP,0.0554
22,RRIRCRPPRLPRPRPRPHGYPRP,-0.108
23,RRIRRRPPRLPRPRPRPDTYPRP,-0.193

row,Sequence,shrunken log2 fold change
1,RRIRSRPPRLPRPRPRPVNSPRP,-0.365
2,RRIRLRPPRLPRPRPRPMNLPRP,-0.31
3,RRIRVRPPRLPRPRPRPAYQPRP,-0.264
4,RRIRERPPRLPRPRPRPFWMPRP,-0.262
5,RRIRTRPPRLPRPRPRPCAAPRP,0.0451
6,RRIRNRPPRLPRPRPRPMPHPRP,-0.626
7,RRIRIRPPRLPRPRPRPDMKPRP,-0.0106
8,RRIRLRPPRLPRPRPRPPIKPRP,-0.179
9,RRIRQRPPRLPRPRPRPYQRPRP,-0.52
10,RRIRERPPRLPRPRPRPNLDPRP,-0.289
11,RRIRLRPPRLPRPRPRPMTPPRP,-0.023
12,RRIRFRPPRLPRPRPRPGVPPRP,0.0248
13,RRIRDRPPRLPRPRPRPRWVPRP,0.263
14,RRIRMRPPRLPRPRPRPGDCPRP,0.548
15,RRIRRRPPRLPRPRPRPWAPPRP,0.043
16,RRIRARPPRLPRPRPRPADLPRP,0.729
17,RRIRCRPPRLPRPRPRPWRFPRP,0.145
18,RRIRYRPPRLPRPRPRPDIAPRP,-0.0285
19,RRIRRRPPRLPRPRPRPHKVPRP,0.0772
20,RRIRTRPPRLPRPRPRPLYTPRP,-0.322
21,RRIRVRPPRLPRPRPRPYWWPRP,-0.208
22,RRIRNRPPRLPRPRPRPNCSPRP,7.72e-05
